Results taken from article PMC9482650, “Quantitative fragmentomics allow affinity mapping of interactomes” (Nature Communications, 2022).
Each block holds one binder with its values, some of them ahead of it.

Tests used:
Assay in all cases: holdup assay
Design in all cases: key: below the threshold = too weak to quantify, mostly under pKd 3.1 to 4
[1] = target: T1, APBA2_2, Q99767
T1 sequence (Q99767 654-744, limits assumed, looked up): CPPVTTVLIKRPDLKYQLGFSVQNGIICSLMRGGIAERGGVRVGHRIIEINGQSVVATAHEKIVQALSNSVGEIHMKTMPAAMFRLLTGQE

[2] = target: T2, APBA3_1, O96018
T2 sequence (O96018 389-490, limits assumed, looked up): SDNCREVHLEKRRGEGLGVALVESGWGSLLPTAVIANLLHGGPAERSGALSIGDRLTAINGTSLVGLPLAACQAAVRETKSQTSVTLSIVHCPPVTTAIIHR

[3] = target: T3, DFNB31_1, Q9P202
T3 sequence (Q9P202 135-233, limits assumed, looked up): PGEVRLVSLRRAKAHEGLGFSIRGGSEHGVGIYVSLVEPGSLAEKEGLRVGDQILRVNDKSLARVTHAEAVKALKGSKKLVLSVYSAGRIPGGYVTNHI

[4] = target: DLG1_2, Q12959
Sequence of DLG1_2, Q12959 (Q12959 314-412): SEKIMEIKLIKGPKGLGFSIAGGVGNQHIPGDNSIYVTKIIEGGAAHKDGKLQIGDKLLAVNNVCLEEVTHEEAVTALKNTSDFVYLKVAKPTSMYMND

[5] = target: DLG4_3, P78352
Sequence of DLG4_3, P78352 (P78352 306-403): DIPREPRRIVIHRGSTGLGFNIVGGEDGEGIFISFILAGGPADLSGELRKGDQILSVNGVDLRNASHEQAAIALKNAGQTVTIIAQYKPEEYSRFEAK

[6] = target: FRMPD2_2, Q68DX3
Sequence of FRMPD2_2, Q68DX3 (Q68DX3 944-1038): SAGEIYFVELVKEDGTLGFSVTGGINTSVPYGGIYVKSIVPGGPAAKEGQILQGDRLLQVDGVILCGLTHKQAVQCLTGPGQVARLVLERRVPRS

[7] = target: FRMPD2_3, Q68DX3
Sequence of FRMPD2_3, Q68DX3 (Q68DX3 1073-1166): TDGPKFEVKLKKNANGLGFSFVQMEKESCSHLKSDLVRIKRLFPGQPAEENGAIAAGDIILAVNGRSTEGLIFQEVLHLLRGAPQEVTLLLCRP

[8] = target: GRASP, Q7Z6J2
Sequence of GRASP, Q7Z6J2 (Q7Z6J2 96-193): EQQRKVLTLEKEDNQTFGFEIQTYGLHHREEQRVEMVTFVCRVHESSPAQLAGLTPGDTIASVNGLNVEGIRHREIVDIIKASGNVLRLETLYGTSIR

[9] = target: T4, GRIP1_2, Q9Y3R0
T4 sequence (Q9Y3R0 145-248, limits assumed, looked up): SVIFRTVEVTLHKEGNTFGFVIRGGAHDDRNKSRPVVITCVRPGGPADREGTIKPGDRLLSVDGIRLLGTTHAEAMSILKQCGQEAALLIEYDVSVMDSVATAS

[10] = target: T5, HTRA3, P83110
T5 sequence (P83110 354-453, limits assumed, looked up): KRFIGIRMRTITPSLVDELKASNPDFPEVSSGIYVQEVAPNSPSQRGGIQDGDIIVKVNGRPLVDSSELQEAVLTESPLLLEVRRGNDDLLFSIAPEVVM

[11] = target: Inadl_5, Q8NI35
Sequence of Inadl_5, Q8NI35 (Q8NI35 673-780): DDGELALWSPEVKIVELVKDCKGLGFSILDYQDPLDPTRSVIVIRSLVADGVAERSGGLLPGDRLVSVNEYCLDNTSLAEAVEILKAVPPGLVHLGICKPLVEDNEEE

[12] = target: Inadl_8, Q8NI35
Sequence of Inadl_8, Q8NI35 (Q8NI35 1425-1530): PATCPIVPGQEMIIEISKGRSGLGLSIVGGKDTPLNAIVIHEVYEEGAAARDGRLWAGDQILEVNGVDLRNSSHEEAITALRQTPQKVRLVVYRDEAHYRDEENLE

[13] = target: LNX1_3, Q8TBB1
Sequence of LNX1_3, Q8TBB1 (Q8TBB1 500-596): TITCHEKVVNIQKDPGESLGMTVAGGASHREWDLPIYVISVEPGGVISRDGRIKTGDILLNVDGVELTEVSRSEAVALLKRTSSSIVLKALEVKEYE

[14] = target: T6, LRRC7, Q96NW7
T6 sequence (Q96NW7 1440-1537, limits assumed, looked up): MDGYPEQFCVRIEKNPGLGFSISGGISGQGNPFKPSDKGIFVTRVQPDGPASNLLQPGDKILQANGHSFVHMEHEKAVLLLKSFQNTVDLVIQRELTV

[15] = target: MAGI2_4, Q86UL8
Sequence of MAGI2_4, Q86UL8 (Q86UL8 772-865): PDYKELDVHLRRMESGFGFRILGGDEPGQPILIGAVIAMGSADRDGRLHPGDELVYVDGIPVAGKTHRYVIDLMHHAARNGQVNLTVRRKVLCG

[16] = target: MAGI2_6, Q86UL8
Sequence of MAGI2_6, Q86UL8 (Q86UL8 1141-1229): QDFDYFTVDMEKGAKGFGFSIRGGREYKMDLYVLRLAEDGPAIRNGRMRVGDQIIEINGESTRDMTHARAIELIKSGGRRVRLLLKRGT

[17] = target: T7, MPP6, Q9NZW5
T7 sequence (Q9NZW5 125-219, limits assumed, looked up): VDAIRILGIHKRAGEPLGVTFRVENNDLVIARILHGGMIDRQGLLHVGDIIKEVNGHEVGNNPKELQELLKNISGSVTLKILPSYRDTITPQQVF

[18] = target: T8, NHERF3_1, Q5T2W1
T8 sequence (Q5T2W1 4-100, limits assumed, looked up): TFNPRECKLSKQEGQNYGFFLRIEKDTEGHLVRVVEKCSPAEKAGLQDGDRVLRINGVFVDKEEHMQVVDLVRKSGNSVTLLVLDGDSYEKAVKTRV

[19] = target: NHERF4_2, Q86UT5
Sequence of NHERF4_2, Q86UT5 (Q86UT5 220-308): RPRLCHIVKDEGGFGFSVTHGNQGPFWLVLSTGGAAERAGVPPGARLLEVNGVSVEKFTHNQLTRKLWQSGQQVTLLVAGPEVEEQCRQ

[20] = target: T9, PDZD2_2, O15018
T9 sequence (O15018 329-429, limits assumed, looked up): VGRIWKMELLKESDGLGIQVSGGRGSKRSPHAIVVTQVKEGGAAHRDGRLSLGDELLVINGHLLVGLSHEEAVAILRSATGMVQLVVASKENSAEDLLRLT

[21] = target: T10, PTPN13_1, Q12923
T10 sequence (Q12923 1088-1188, limits assumed, looked up): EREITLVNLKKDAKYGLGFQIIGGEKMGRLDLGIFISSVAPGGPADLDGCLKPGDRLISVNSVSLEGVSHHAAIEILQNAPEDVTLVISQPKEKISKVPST

[22] = target: T11, SIPA1L2, Q9P2F8
T11 sequence (Q9P2F8 945-1036, limits assumed, looked up): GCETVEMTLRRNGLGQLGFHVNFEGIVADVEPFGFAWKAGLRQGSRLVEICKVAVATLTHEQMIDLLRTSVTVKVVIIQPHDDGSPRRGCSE

[23] = target: T12, SNTA1, Q13424
T12 sequence (Q13424 82-180, limits assumed, looked up): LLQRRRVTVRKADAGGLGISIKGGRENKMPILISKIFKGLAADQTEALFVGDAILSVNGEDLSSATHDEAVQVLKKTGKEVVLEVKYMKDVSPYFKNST

[24] = target: T13, SNTG2, Q9NY99
T13 sequence (Q9NY99 68-166, limits assumed, looked up): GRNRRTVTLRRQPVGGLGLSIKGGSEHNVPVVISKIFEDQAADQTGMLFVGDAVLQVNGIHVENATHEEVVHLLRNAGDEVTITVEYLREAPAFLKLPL

[25] = target: SNX27, Q96L92
[26] = plain residues with an end cap or a label only (N-terminal biotin on a linker: ttds)
[27] = plain residues with an end cap or a label only (N-terminal biotin on a linker: ahx)
[28] = plain residues with an end cap or a label only (N-terminal biotin on a linker: ado-ado)

pKd [1, 26]: below the threshold
pKd [2, 26]: below the threshold
pKd [3, 26]: below the threshold
pKd [4, 26]: below the threshold
pKd [5, 26]: below the threshold
pKd [6, 26]: below the threshold
pKd [7, 26]: below the threshold
pKd [8, 26]: below the threshold
pKd [9, 26]: 3.63
pKd [10, 26]: below the threshold
pKd [11, 26]: below the threshold
pKd [12, 26]: below the threshold
pKd [13, 26]: below the threshold
pKd [14, 26]: below the threshold
pKd [15, 26]: below the threshold
pKd [16, 26]: below the threshold
pKd [17, 26]: below the threshold
pKd [18, 26]: 4.5
pKd [19, 26]: below the threshold
pKd [20, 26]: 4
pKd [21, 26]: below the threshold
pKd [22, 26]: below the threshold
pKd [23, 26]: 3.63
pKd [24, 26]: below the threshold
pKd [25, 26]: 5.15
B1: PODXL, O00592 (peptide)
chain: DLDEEEDTHL

pKd [1, 27]: below the threshold
pKd [2, 27]: below the threshold
pKd [3, 27]: 3.66
pKd [4, 27]: 4.9
pKd [5, 27]: below the threshold
pKd [6, 27]: below the threshold
pKd [7, 27]: below the threshold
pKd [8, 27]: 4
pKd [9, 27]: below the threshold
pKd [10, 27]: below the threshold
pKd [11, 27]: below the threshold
pKd [12, 27]: 3.88
pKd [13, 27]: below the threshold
pKd [14, 27]: below the threshold
pKd [15, 27]: below the threshold
pKd [16, 27]: 3.66
pKd [17, 27]: below the threshold
pKd [18, 27]: below the threshold
pKd [19, 27]: below the threshold
pKd [20, 27]: 4.23
pKd [21, 27]: below the threshold
pKd [22, 27]: below the threshold
pKd [23, 27]: 3.65
pKd [24, 27]: 3.5
pKd [25, 27]: 3.96
B2: MTMR1, Q13613 (peptide)
chain: HSATSVHTSV

pKd [1, 28]: below the threshold
pKd [2, 28]: below the threshold
pKd [3, 28]: 4.79
pKd [4, 28]: 5.11
pKd [5, 28]: below the threshold
pKd [6, 28]: 5.22
pKd [7, 28]: 3.56
pKd [8, 28]: 3.57
pKd [9, 28]: below the threshold
pKd [10, 28]: below the threshold
pKd [11, 28]: below the threshold
pKd [12, 28]: below the threshold
pKd [13, 28]: below the threshold
pKd [14, 28]: 3.93
pKd [15, 28]: below the threshold
pKd [16, 28]: 4.59
pKd [17, 28]: below the threshold
pKd [18, 28]: 4.75
pKd [19, 28]: below the threshold
pKd [20, 28]: 5.25
pKd [21, 28]: below the threshold
pKd [22, 28]: below the threshold
pKd [23, 28]: 5.18
pKd [24, 28]: 4.8
pKd [25, 28]: 5.73
B3: DGKI, O75912 (peptide)
chain: IGHEDLETAV
